Results taken from article doi:10.1101/559534v1 (biorxiv, 2019).
Changes are numbered by the printed parent chain. In names and notes the source's numbering stands.

How the values were obtained:
ATRR (ATR1R2) [1] = target: T1, ATRR (ATR1R2) (Aspergillus nidulans, UniProt A0A1U8QWA2); experiment: glycine betaine reductase inhibition kinetics; assay type: biochemical
T1 sequence (A0A1U8QWA2 1-1270): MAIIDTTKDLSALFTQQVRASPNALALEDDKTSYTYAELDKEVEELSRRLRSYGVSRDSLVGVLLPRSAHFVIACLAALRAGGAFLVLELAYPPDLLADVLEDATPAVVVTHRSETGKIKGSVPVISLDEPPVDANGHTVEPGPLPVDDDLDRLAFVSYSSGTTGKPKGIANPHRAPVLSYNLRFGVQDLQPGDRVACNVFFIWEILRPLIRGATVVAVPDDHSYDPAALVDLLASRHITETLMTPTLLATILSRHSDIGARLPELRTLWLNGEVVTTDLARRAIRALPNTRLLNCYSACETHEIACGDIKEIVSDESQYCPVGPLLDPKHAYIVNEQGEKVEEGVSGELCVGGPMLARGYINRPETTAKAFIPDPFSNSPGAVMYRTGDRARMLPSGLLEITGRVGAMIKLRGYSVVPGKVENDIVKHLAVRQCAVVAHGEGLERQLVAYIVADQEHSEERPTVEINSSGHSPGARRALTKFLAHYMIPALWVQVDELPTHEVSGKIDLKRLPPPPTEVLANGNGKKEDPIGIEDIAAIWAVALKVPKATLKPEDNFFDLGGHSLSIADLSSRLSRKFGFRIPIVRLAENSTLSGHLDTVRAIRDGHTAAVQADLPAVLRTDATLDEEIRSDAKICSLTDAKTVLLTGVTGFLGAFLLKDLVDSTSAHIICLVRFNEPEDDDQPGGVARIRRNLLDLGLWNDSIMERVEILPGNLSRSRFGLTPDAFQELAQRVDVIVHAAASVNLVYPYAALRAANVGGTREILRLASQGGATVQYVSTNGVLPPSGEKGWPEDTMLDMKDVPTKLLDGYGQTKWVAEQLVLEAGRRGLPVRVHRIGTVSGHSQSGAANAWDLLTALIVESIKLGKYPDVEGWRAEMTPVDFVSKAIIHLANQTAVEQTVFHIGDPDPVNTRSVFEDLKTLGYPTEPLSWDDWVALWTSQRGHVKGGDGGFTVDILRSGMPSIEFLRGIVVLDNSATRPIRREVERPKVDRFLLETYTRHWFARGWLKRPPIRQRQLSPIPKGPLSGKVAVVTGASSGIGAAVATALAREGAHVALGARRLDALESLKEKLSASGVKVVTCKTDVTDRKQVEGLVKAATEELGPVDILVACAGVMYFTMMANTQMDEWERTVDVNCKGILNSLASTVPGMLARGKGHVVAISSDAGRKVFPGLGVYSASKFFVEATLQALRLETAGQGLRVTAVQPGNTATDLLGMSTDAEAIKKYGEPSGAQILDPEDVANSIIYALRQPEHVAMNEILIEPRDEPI

ATRR (ATR1R2) [2] = target: T1, ATRR (ATR1R2); experiment: carboxylic acid reductase steady-state kinetics; assay type: biochemical; details: substrate inhibition
purified protein [3] = substrate: C[N+](C)(C)CC=O; experiment: purified protein; details: NADPH as co-substrate
[4] = substrate: C[N+](C)(C)CC(=O)[O-]; experiment: carboxylic acid reductase steady-state kinetics, NADPH oxidation; assay type: biochemical, Aspergillus nidulans; details: ATP and NADPH as co-substrates; R2 inactivated
purified protein [5] = substrate: C[N+](C)(C)CC(=O)[O-]; experiment: purified protein; assay type: biochemical, Aspergillus nidulans; details: holo-enzyme; ATP and NADPH as co-substrates
purified protein [6] = substrate: CN(C)CC(=O)O; experiment: purified protein; details: ATP and NADPH as co-substrates; fit with substrate inhibition

C[N+](C)(C)CCO [Choline]
Ki (ATRR (ATR1R2) [1]): 270 ± 30 µM

CN(C)C [N(CH3)3H+Cl-]
Ki (ATRR (ATR1R2) [1]): 2600 ± 500 µM

CN(C)CC(=O)O [N,N-Dimethylglycine]
Ki (ATRR (ATR1R2) [2]): 48000 ± 9000 µM

B1: ATRR (ATR1R2) (Aspergillus nidulans FGSC A4; Y812F) (protein)
chain: T1 sequence (A0A1U8QWA2 1-1270) with Y812F
Km (purified protein [3]; R1 inactivated): 240 ± 30 µM | kcat (purified protein [3]; R1 inactivated): 7.0 ± 0.2 s⁻¹

B2: ATRR (ATR1R2) (Aspergillus nidulans FGSC A4; Y1178F) (protein)
chain: T1 sequence (A0A1U8QWA2 1-1270) with Y1178F
Km [4]: 2200 ± 200 µM | kcat [4]: 0.72 ± 0.02 s⁻¹ | Km (purified protein [3]; R2 inactivated): 1500 ± 600 µM | kcat (purified protein [3]; R2 inactivated): 0.30 ± 0.04 s⁻¹

B3: ATRR (ATR1R2) (Aspergillus nidulans FGSC A4; G1036A/Y1178F) (protein)
chain: T1 sequence (A0A1U8QWA2 1-1270) with G1036A, Y1178F
Km [4]: 2200 ± 300 µM | kcat [4]: 0.66 ± 0.02 s⁻¹ | Km (purified protein [3]; R2 inactivated): 2600 ± 500 µM | kcat (purified protein [3]; R2 inactivated): 0.018 ± 0.001 s⁻¹

B4: ATRR (ATR1R2) (Aspergillus nidulans FGSC A4) (protein)
chain: T1 sequence (A0A1U8QWA2 1-1270)
Km (purified protein [5]): 2100 ± 200 µM | kcat (purified protein [5]): 0.94 ± 0.03 s⁻¹ | Km (purified protein [3]; R2 site): 240 ± 30 µM | kcat (purified protein [3]; R2 site): 7.1 ± 0.3 s⁻¹ | Km (purified protein [6]): 5800 ± 800 µM | kcat (purified protein [6]): 0.023 ± 0.002 s⁻¹
